Measured values as given in the supplement of paper PMC9170038.

Test system: MS2 coat protein
Experiment: apparent KD of MS2 coat protein; designed switch direction (-1 OFF switch, 1 ON switch): -1; higher = weaker reporter binding
Outline: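 Designed RNA switches sharing common flanks were transcribed on Illumina chips by stalled E. coli RNA polymerase. They were titrated with SNAP-549-labelled MS2 coat protein, from 0.7 or 1.5 nM doubling to 3 µM, in Tris-HCl pH 7.5 buffer with KCl, MgCl2, BSA, DTT, tRNA and Tween-20. Titrations ran without input, with 200 uM small-molecule ligand, or with an oligonucleotide input. The apparent KD of each design is the median over its clusters, after curve-fitting of normalised cluster fluorescence.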

[1] = Eterna round: R95, input ligand: microRNA oligo, concentration not stated
[2] = input ligand: microRNA oligo, concentration not stated
[3] = Eterna round: R95, input ligand: FMN 200 uM
[4] = Eterna round: R95, input ligand: none

Sequence	apparent KD of MS2 coat protein [1] [µM]	apparent KD of MS2 coat protein (input ligand: FMN 200 uM) [µM]	apparent KD of MS2 coat protein [2] [µM]	apparent KD of MS2 coat protein (input ligand: none) [µM]	apparent KD of MS2 coat protein [3] [µM]	apparent KD of MS2 coat protein [4] [µM]
ACGAAACAUGAGGAUCACCCAUGUGAGGAUAUGUAAAUACUAGACAAAUAACAGAAAAACAGAAGGCACUCAGA [JR_Exclusion1_Sub003] (puzzle: Exclusion 1)	0.022	–	–	–	–	–
ACGAGGAUUACAGGAUAUGAAGCUAAAACGGCGUUAGAAGGGUAUACAGAGUUACAUGAGGAUCACCCAUGUUGUGAUUUCGAA [AK ExNG1-V2-4.1] (Eterna round: R96, puzzle: Exclusion NG 1)	–	0.158	0.115	0.134	–	–
ACGAUGACCGAAAAGUGUCAACUGACAUGAGGAUCACCCAUGUAGGAUAUGGCUACGAAAAGUAGUCAGAAGGACAAGUCAUCA [Omei Exc(NG) 3 Av5] (Eterna round: R96, puzzle: Exclusion NG 3)	–	0.0124	0.00852	0.014	–	–
ACGCGACAUGAGGAUCACCCAUGUGAGGAUAUGGCCUGUUUGUCGUGUGCUGGCUCUGUCAGAAGGCGCGUGGG [salish99_ex1_r4_041] (Eterna round: R97, puzzle: Exclusion 1)	–	0.612	–	0.683	–	–
ACGUAUAGAGGAUAUAGUGAAUAUUACAUGAGGAUCACCCAUGUUCUUCAAAGUAUAUUUCUAGAAGGCUAAUGAA [EX-5 Malc#10] (puzzle: Exclusion 5)	0.0355	–	–	–	–	–
ACGUGAUAUCUGUCGGUGGACAUGAGGAUCACCCAUGUAAGCUCUUUGCUCGUCUUAUAACCCGGUGACAGACCUUC [Xerile] (puzzle: Sensor v3, turn-off variant 1)	0.322	–	–	–	0.0423	0.0528
ACGUUAGGAGGAUAUAGAAUUUUAGACAUGAGGAUCACCCAUGUCCUAUGUCAUGAGAGGCUAGAAGGCCUAGUUU [Eternabot (L2) Solution 51] (Eterna round: R97, puzzle: Exclusion 5)	–	0.142	–	0.0294	–	–
ACUAGAUGAGGAUAUGCAUAUUUUCGUGUUCUUCUAGAUUAACAUGAGGAUCACCCAUGUAGAAGGCGUCUGGA [Exclusion 2 - 18] (puzzle: Exclusion 2)	0.0176	–	–	–	–	–
ACUAUUAGAGGAUAUACAGUUUAUUACAUGAGGAUCACCCAUGUUCUUCAAUGUAUAUAAGUAGAAGGCUAAGGAA [EX-5 Malc#3] (puzzle: Exclusion 5)	0.0459	–	–	–	0.114	0.0382
ACUCACGCAGGAUAUACAUGAGGAUCACCCAUGUUCAAAGGGCGCGGGAACAUCGUCUGUAGAAGGGCGAACAU [jl-ex3-4.62 ViennaUCT mod] (Eterna round: R97, puzzle: Exclusion 3)	–	0.0404	–	0.029	–	–
ACUGGAUGCAAGCAGGUCCACAUGAGGAUCACCCAUGUUCGUCGGCCAGCAUCGGCUUCUACCGCAAGCCGCGUGCA [Eternabot (L1) Solution 27] (Eterna round: R97, puzzle: Sensor, turn-off variant 1)	–	0.0159	–	0.0188	–	–
ACUUACUGAGGAUAUACAUAGAUUUACAUGAGGAUCACCCAUGUUCCUCUUUGUAUAAAUGUAGAAGGCAGAAGAA [Mat - Exclusion 5 - JL Mod - D58] (Eterna round: R97, puzzle: Exclusion 5)	–	0.177	–	0.0936	–	–
ACUUACUGAGGAUAUACUUAGAUUUACAUGAGGAUCACCCAUGUUCCUCUAUGUAUAUAUGUAGAAGGCAGAAGUA [Mat - Exclusion 5 - JL Mod - D50] (Eterna round: R97, puzzle: Exclusion 5)	–	0.252	–	0.038	–	–
AGAAAACAUGAGGAUCACCCAUGUGAGGAUAUCGCGCUUAACAGGGUCACAGUGGUGUCGAGAAGGUGCCUGGG [Eternabot (L1) Solution 55] (Eterna round: R97, puzzle: Exclusion 1)	–	0.144	–	0.0663	–	–
AGAAAGGUAGGAUAUACGAAAAAAAAGGGUAGAAAAAAAACACAUGAGGAUCACCCAUGUAGAAGGACCAAAGA [Mat - Exclusion 2 - Tesla mod - D31] (Eterna round: R96, puzzle: Exclusion 2)	–	–	0.0276	–	–	–
AGAAGUAGAAACCGAUCCUACAUGAGGAUCACCCAUGUAGCAAGACGUGCACGCGAAGCUCGUCAGACUACCAGAGG [salish99_TOv1_r3_018] (puzzle: Sensor v3, turn-off variant 1)	0.124	–	–	–	0.316	0.0501
AGAGUACAUGAGGAUCACCCAUGUCAGGAUAUGCAGAAGAAGAAGAAGAGAAGAGAGAGCAGAAGGGACAAGAG [Ex 1 M2] (puzzle: Exclusion 1)	0.0262	–	–	–	0.0411	0.0294

Sequence	apparent KD of MS2 coat protein [1] [µM]	apparent KD of MS2 coat protein (input ligand: FMN 200 uM) [µM]	apparent KD of MS2 coat protein [2] [µM]	apparent KD of MS2 coat protein (input ligand: none) [µM]	apparent KD of MS2 coat protein [3] [µM]	apparent KD of MS2 coat protein [4] [µM]
AGAGUGCUGCGAGGAUAUACAUGAGGAUCACCCAUGUAAAAGUGUGAGGCUUUGCCUCACACUAUGUAGAAGGCGCAGUACUCA [Mat - Exclusion NG 2 - Mod of JL - D10] (Eterna round: R96, puzzle: Exclusion NG 2)	–	0.0176	0.0094	0.0134	–	–
AGAGUGCUGCGAGGAUAUACAUGAGGAUCACCCAUGUAAUCGUGUGAGGCAAAGCCUCACACGAUGUAGAAGGCGCAGUACUCA [Mat - Exclusion NG 2 - Mod of JL - D24] (Eterna round: R96, puzzle: Exclusion NG 2)	–	0.0131	0.0128	0.0167	–	–
AGAUAGUGGUGAGGAUAUCAGAAUAGAAAGAAAUGAGAAGGCGCACAUGAGGAUCACCCAUGUGAGGUCUUGAGACUACAUGGU [Prohibition 39 - Jieux - Exclusion NG 1] (Eterna round: R96, puzzle: Exclusion NG 1)	–	–	0.0157	–	–	–
AGAUCCUGAGUCAGGAUAUAGAGACGGUAGUCGGGCUAGAAGGGACAUGAGGAUCACCCAUGUGGGUUCUUGCC [Rilalera] (puzzle: Brourd's mod of Exclusion 4)	0.0101	–	–	–	–	–
AGAUCGUCAGGAUAUACAUGAGGAUCACCCAUGUGUAGUUCCAAUUGGACUACAACAUGUAGAAGGGACGAUCG [Exclusion 3 (MOD1 of #1 Marzena11)] (Eterna round: R97, puzzle: Exclusion 3)	–	1.06	–	0.675	–	–
AGAUCUAGGACAGGAUAUACAGAUGGCUUCAUCGAAGAUGAAGCCAUCACAUGAGGAUCACCCAUGUAGAAGGGUCCUAGAUCA [Omei Exc(NG) 2Av4] (Eterna round: R96, puzzle: Exclusion NG 2)	–	0.0192	0.00947	0.0132	–	–
AGAUGACUGGAGGAUAUCCGAUGCUUCCUGCCAGGAGAAGGCCGGACAUGAGGAUCACCCAUGUGGUGAGCUCG [Vezaatinle] (puzzle: Exclusion 6)	0.347	–	–	–	0.329	0.444
AGAUGGCGAGGAUAUACAUGAGGAUCACCCAUGUGAGAAGAAAGAGUGAGGAAGAAAAGUAGAAGGCGCUGUCA [Mat - Exclusion 3 - Mod of Salish D19] (puzzle: Exclusion 3)	0.0954	–	–	–	0.209	0.0761
AGAUGUAGAUACCGAUCCUACAUGAGGAUCACCCAUGUAGCUAGACGUGCACGCGAAGCUCGUCAGACUACCAGAAG [salish99_TOv1_r3_084] (puzzle: Sensor v3, turn-off variant 1)	0.144	–	–	–	0.172	0.261
AGAUUACGAGGAUAUCGAGUUUAGUACAUGAGGAUCACCCAUGUUAUCCAGGUCUCGUUUCGAGAAGGCGUGAUUC [LRO-Ex5-08] (puzzle: Exclusion 5)	0.2	–	–	–	–	–
AGCAACGUACAGGAUAUACUUCACCUUCUAGAAGUAGAAGGGUGCACAUGAGGAUCACCCAUGUUAGCGAGCAG [Eternabot (Original) Solution 25] (Eterna round: R97, puzzle: Exclusion 6)	–	0.0184	–	0.0159	–	–
AGCACGACUGCAGGAUAUUCCGCAGUUGAUGCGGGAGAAGGGCAGGGCAGCACUUGAGGAUCACCCAAGUGACCGUGUUGCCAA [Mutated MS2 EX1.7] (Eterna round: R96, puzzle: Exclusion NG 1)	–	0.0358	0.0172	0.0251	–	–
AGCAGACGAGGAUAUAAACGAUAUAACAUGAGGAUCACCCAUGUACGAUCGAUAGAUCGUUUAGAAGGCGUCUGCU [E5/9-A1] (Eterna round: R97, puzzle: Exclusion 5)	–	0.0145	–	0.0131	–	–
AGCAGACGAGGAUAUGAUUAAUAAUACAUGAGGAUCACCCAUGUAAUACUGAUCUAUGGAUCAGAAGGCGUCUGCU [E5/6-A2] (Eterna round: R97, puzzle: Exclusion 5)	–	0.012	–	0.0166	–	–
AGCAGGCAUUCCUCUGGACACAUGAGGAUCACCCAUGUUCGUCGCUCGCAGCGUUGAGGCAUUACCCUUAACGCUUU [Eternabot (Original) Solution 29] (Eterna round: R97, puzzle: Sensor, turn-off variant 1)	–	0.0525	–	0.0488	–	–
AGCAUGUGAGGAUAUGUACCUGAGUGCUUUGCGCUCAGGAAACAGAAGGCACAUGAGGAUCACCCAUGUGAAAA [jl-ex4-4.45 ViennaUCT mod] (Eterna round: R97, puzzle: Exclusion 4)	–	0.0687	–	0.281	–	–
AGCCAAGCAGGAUAUACCCGGGAUAACAUGAGGAUCACCCAUGUGACCGAUUGAUGUCCUGUAGAAGGGCUUGGGA [Mod of ViennaUCT 21 - Jieux - Exclusion 5] (Eterna round: R97, puzzle: Exclusion 5)	–	0.0781	–	0.0283	–	–
